# Measurements taken from US20210388087A1 (Chugai, published 2021).
# Target: T1, CD3 epsilon homodimer protein (UniProt P07766 23-126)
# T1 construct: immobilized on Sensor chip CM4 by amine coupling; also called CD3 (CD3 epsilon)
# Assay: SPR (Biacore T200), CD3 epsilon homodimer on CM4 chip, one-arm antibody as analyte, 25 C;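 also: homodimer attached to the sensor surface via amine coupling, HBS-EP+ used as running buffer during binding runs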
# T1 sequence (P07766 23-126): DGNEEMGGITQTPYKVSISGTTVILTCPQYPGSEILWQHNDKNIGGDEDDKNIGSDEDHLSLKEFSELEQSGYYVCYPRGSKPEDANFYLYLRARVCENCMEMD
row,Binder,ratio of amounts bound (altered form / CE115HA000)
1,"CE115HA000 S52cK one-arm antibody (antibody, human IgG1, kappa, L234A L235A, N297A, name in Kabat numbering) heavy: QVQLVESGGGVVQPGRSLRLSCAASGFTFSNAWMHWVRQAPGKGLEWVAQIKAKKNNYATYYAESVKGRFTISRDDSKNSLYLQMNSLKTEDTAVYYCRYVHYGAYYGVDAWGQGTTVTVSSASTKGPSVFPLAPSSKSTSGGTAALGCLVKDYFPEPVTVSWNSGALTSGVHTFPAVLQSSGLYSLSSVVTVPSSSLGTQTYICNVNHKPSNTKVDKKVEPKSCDKTHTCPPCPAPEAAGGPSVFLFPPKPKDTLMISRTPEVTCVVVDVSHEDPEVKFNWYVDGVEVHNAKTKPREEQYASTYRVVSVLTVLHQDWLNGKEYKCKVSNKALPAPIEKTISKAKGQPREPQVYTLPPSRCELTKNQVSLSCAVKGFYPSDIAVEWESNGQPENNYKTTPPVLDSDGSFFLVSKLTVDKSRWQQGNVFSCSVMHEALHNHYTQKSLSLSPDYKDDDDK EPKSSDKTHTCPPCPAPELLGGPSVFLFPPKPKDTLMISRTPEVTCVVVDVSHEDPEVKFNWYVDGVEVHNAKTKPREEQYNSTYRVVSVLTVLHQDWLNGKEYKCKVSNKALPAPIEKTISKAKGQPREPQVCTLPPSRDELTKNQVSLWCLVKGFYPSDIAVEWESNGQPENNYKTTPPVLDSDGSFFLYSKLTVDKSRWQQGNVFSCSVMHEALHNRYTQKSLSLSP light: DIVMTQSPLSLPVTPGEPASISCRSSQSLVHSNRNTYLHWYQQKPGQAPRLLIYKVSNRFSGVPDRFSGSGSGTDFTLKISRVEAEDVGVYYCGQGTQVPYTFGQGTKLEIKRTVAAPSVFIFPPSDEQLKSGTASVVCLLNNFYPREAKVQWKVDNALQSGNSQESVTEQDSKDSTYSLSSTLTLSKADYEKHKVYACEVTHQGLSSPVTKSFNRGEC",1.19
2,"CE115HA000 S52cL one-arm antibody (antibody, human IgG1, kappa, L234A L235A, N297A, name in Kabat numbering) heavy: QVQLVESGGGVVQPGRSLRLSCAASGFTFSNAWMHWVRQAPGKGLEWVAQIKAKLNNYATYYAESVKGRFTISRDDSKNSLYLQMNSLKTEDTAVYYCRYVHYGAYYGVDAWGQGTTVTVSSASTKGPSVFPLAPSSKSTSGGTAALGCLVKDYFPEPVTVSWNSGALTSGVHTFPAVLQSSGLYSLSSVVTVPSSSLGTQTYICNVNHKPSNTKVDKKVEPKSCDKTHTCPPCPAPEAAGGPSVFLFPPKPKDTLMISRTPEVTCVVVDVSHEDPEVKFNWYVDGVEVHNAKTKPREEQYASTYRVVSVLTVLHQDWLNGKEYKCKVSNKALPAPIEKTISKAKGQPREPQVYTLPPSRCELTKNQVSLSCAVKGFYPSDIAVEWESNGQPENNYKTTPPVLDSDGSFFLVSKLTVDKSRWQQGNVFSCSVMHEALHNHYTQKSLSLSPDYKDDDDK EPKSSDKTHTCPPCPAPELLGGPSVFLFPPKPKDTLMISRTPEVTCVVVDVSHEDPEVKFNWYVDGVEVHNAKTKPREEQYNSTYRVVSVLTVLHQDWLNGKEYKCKVSNKALPAPIEKTISKAKGQPREPQVCTLPPSRDELTKNQVSLWCLVKGFYPSDIAVEWESNGQPENNYKTTPPVLDSDGSFFLYSKLTVDKSRWQQGNVFSCSVMHEALHNRYTQKSLSLSP light: DIVMTQSPLSLPVTPGEPASISCRSSQSLVHSNRNTYLHWYQQKPGQAPRLLIYKVSNRFSGVPDRFSGSGSGTDFTLKISRVEAEDVGVYYCGQGTQVPYTFGQGTKLEIKRTVAAPSVFIFPPSDEQLKSGTASVVCLLNNFYPREAKVQWKVDNALQSGNSQESVTEQDSKDSTYSLSSTLTLSKADYEKHKVYACEVTHQGLSSPVTKSFNRGEC",0.98
3,"CE115HA000 S52cQ one-arm antibody (antibody, human IgG1, kappa, L234A L235A, N297A, name in Kabat numbering) heavy: QVQLVESGGGVVQPGRSLRLSCAASGFTFSNAWMHWVRQAPGKGLEWVAQIKAKQNNYATYYAESVKGRFTISRDDSKNSLYLQMNSLKTEDTAVYYCRYVHYGAYYGVDAWGQGTTVTVSSASTKGPSVFPLAPSSKSTSGGTAALGCLVKDYFPEPVTVSWNSGALTSGVHTFPAVLQSSGLYSLSSVVTVPSSSLGTQTYICNVNHKPSNTKVDKKVEPKSCDKTHTCPPCPAPEAAGGPSVFLFPPKPKDTLMISRTPEVTCVVVDVSHEDPEVKFNWYVDGVEVHNAKTKPREEQYASTYRVVSVLTVLHQDWLNGKEYKCKVSNKALPAPIEKTISKAKGQPREPQVYTLPPSRCELTKNQVSLSCAVKGFYPSDIAVEWESNGQPENNYKTTPPVLDSDGSFFLVSKLTVDKSRWQQGNVFSCSVMHEALHNHYTQKSLSLSPDYKDDDDK EPKSSDKTHTCPPCPAPELLGGPSVFLFPPKPKDTLMISRTPEVTCVVVDVSHEDPEVKFNWYVDGVEVHNAKTKPREEQYNSTYRVVSVLTVLHQDWLNGKEYKCKVSNKALPAPIEKTISKAKGQPREPQVCTLPPSRDELTKNQVSLWCLVKGFYPSDIAVEWESNGQPENNYKTTPPVLDSDGSFFLYSKLTVDKSRWQQGNVFSCSVMHEALHNRYTQKSLSLSP light: DIVMTQSPLSLPVTPGEPASISCRSSQSLVHSNRNTYLHWYQQKPGQAPRLLIYKVSNRFSGVPDRFSGSGSGTDFTLKISRVEAEDVGVYYCGQGTQVPYTFGQGTKLEIKRTVAAPSVFIFPPSDEQLKSGTASVVCLLNNFYPREAKVQWKVDNALQSGNSQESVTEQDSKDSTYSLSSTLTLSKADYEKHKVYACEVTHQGLSSPVTKSFNRGEC",1.04

# Now from value to binder:
row,ratio of amounts bound (altered form / CE115HA000),Binder
1,0.93,"CE115HA000 S52cV one-arm antibody (antibody, human IgG1, kappa, L234A L235A, N297A, name in Kabat numbering) heavy: QVQLVESGGGVVQPGRSLRLSCAASGFTFSNAWMHWVRQAPGKGLEWVAQIKAKVNNYATYYAESVKGRFTISRDDSKNSLYLQMNSLKTEDTAVYYCRYVHYGAYYGVDAWGQGTTVTVSSASTKGPSVFPLAPSSKSTSGGTAALGCLVKDYFPEPVTVSWNSGALTSGVHTFPAVLQSSGLYSLSSVVTVPSSSLGTQTYICNVNHKPSNTKVDKKVEPKSCDKTHTCPPCPAPEAAGGPSVFLFPPKPKDTLMISRTPEVTCVVVDVSHEDPEVKFNWYVDGVEVHNAKTKPREEQYASTYRVVSVLTVLHQDWLNGKEYKCKVSNKALPAPIEKTISKAKGQPREPQVYTLPPSRCELTKNQVSLSCAVKGFYPSDIAVEWESNGQPENNYKTTPPVLDSDGSFFLVSKLTVDKSRWQQGNVFSCSVMHEALHNHYTQKSLSLSPDYKDDDDK EPKSSDKTHTCPPCPAPELLGGPSVFLFPPKPKDTLMISRTPEVTCVVVDVSHEDPEVKFNWYVDGVEVHNAKTKPREEQYNSTYRVVSVLTVLHQDWLNGKEYKCKVSNKALPAPIEKTISKAKGQPREPQVCTLPPSRDELTKNQVSLWCLVKGFYPSDIAVEWESNGQPENNYKTTPPVLDSDGSFFLYSKLTVDKSRWQQGNVFSCSVMHEALHNRYTQKSLSLSP light: DIVMTQSPLSLPVTPGEPASISCRSSQSLVHSNRNTYLHWYQQKPGQAPRLLIYKVSNRFSGVPDRFSGSGSGTDFTLKISRVEAEDVGVYYCGQGTQVPYTFGQGTKLEIKRTVAAPSVFIFPPSDEQLKSGTASVVCLLNNFYPREAKVQWKVDNALQSGNSQESVTEQDSKDSTYSLSSTLTLSKADYEKHKVYACEVTHQGLSSPVTKSFNRGEC"
2,1.11,"CE115HA000 S52cY one-arm antibody (antibody, human IgG1, kappa, L234A L235A, N297A, name in Kabat numbering) heavy: QVQLVESGGGVVQPGRSLRLSCAASGFTFSNAWMHWVRQAPGKGLEWVAQIKAKYNNYATYYAESVKGRFTISRDDSKNSLYLQMNSLKTEDTAVYYCRYVHYGAYYGVDAWGQGTTVTVSSASTKGPSVFPLAPSSKSTSGGTAALGCLVKDYFPEPVTVSWNSGALTSGVHTFPAVLQSSGLYSLSSVVTVPSSSLGTQTYICNVNHKPSNTKVDKKVEPKSCDKTHTCPPCPAPEAAGGPSVFLFPPKPKDTLMISRTPEVTCVVVDVSHEDPEVKFNWYVDGVEVHNAKTKPREEQYASTYRVVSVLTVLHQDWLNGKEYKCKVSNKALPAPIEKTISKAKGQPREPQVYTLPPSRCELTKNQVSLSCAVKGFYPSDIAVEWESNGQPENNYKTTPPVLDSDGSFFLVSKLTVDKSRWQQGNVFSCSVMHEALHNHYTQKSLSLSPDYKDDDDK EPKSSDKTHTCPPCPAPELLGGPSVFLFPPKPKDTLMISRTPEVTCVVVDVSHEDPEVKFNWYVDGVEVHNAKTKPREEQYNSTYRVVSVLTVLHQDWLNGKEYKCKVSNKALPAPIEKTISKAKGQPREPQVCTLPPSRDELTKNQVSLWCLVKGFYPSDIAVEWESNGQPENNYKTTPPVLDSDGSFFLYSKLTVDKSRWQQGNVFSCSVMHEALHNRYTQKSLSLSP light: DIVMTQSPLSLPVTPGEPASISCRSSQSLVHSNRNTYLHWYQQKPGQAPRLLIYKVSNRFSGVPDRFSGSGSGTDFTLKISRVEAEDVGVYYCGQGTQVPYTFGQGTKLEIKRTVAAPSVFIFPPSDEQLKSGTASVVCLLNNFYPREAKVQWKVDNALQSGNSQESVTEQDSKDSTYSLSSTLTLSKADYEKHKVYACEVTHQGLSSPVTKSFNRGEC"
3,0.92,"CE115HA000 S62D one-arm antibody (antibody, human IgG1, kappa, L234A L235A, N297A, name in Kabat numbering) heavy: QVQLVESGGGVVQPGRSLRLSCAASGFTFSNAWMHWVRQAPGKGLEWVAQIKAKSNNYATYYAEDVKGRFTISRDDSKNSLYLQMNSLKTEDTAVYYCRYVHYGAYYGVDAWGQGTTVTVSSASTKGPSVFPLAPSSKSTSGGTAALGCLVKDYFPEPVTVSWNSGALTSGVHTFPAVLQSSGLYSLSSVVTVPSSSLGTQTYICNVNHKPSNTKVDKKVEPKSCDKTHTCPPCPAPEAAGGPSVFLFPPKPKDTLMISRTPEVTCVVVDVSHEDPEVKFNWYVDGVEVHNAKTKPREEQYASTYRVVSVLTVLHQDWLNGKEYKCKVSNKALPAPIEKTISKAKGQPREPQVYTLPPSRCELTKNQVSLSCAVKGFYPSDIAVEWESNGQPENNYKTTPPVLDSDGSFFLVSKLTVDKSRWQQGNVFSCSVMHEALHNHYTQKSLSLSPDYKDDDDK EPKSSDKTHTCPPCPAPELLGGPSVFLFPPKPKDTLMISRTPEVTCVVVDVSHEDPEVKFNWYVDGVEVHNAKTKPREEQYNSTYRVVSVLTVLHQDWLNGKEYKCKVSNKALPAPIEKTISKAKGQPREPQVCTLPPSRDELTKNQVSLWCLVKGFYPSDIAVEWESNGQPENNYKTTPPVLDSDGSFFLYSKLTVDKSRWQQGNVFSCSVMHEALHNRYTQKSLSLSP light: DIVMTQSPLSLPVTPGEPASISCRSSQSLVHSNRNTYLHWYQQKPGQAPRLLIYKVSNRFSGVPDRFSGSGSGTDFTLKISRVEAEDVGVYYCGQGTQVPYTFGQGTKLEIKRTVAAPSVFIFPPSDEQLKSGTASVVCLLNNFYPREAKVQWKVDNALQSGNSQESVTEQDSKDSTYSLSSTLTLSKADYEKHKVYACEVTHQGLSSPVTKSFNRGEC"
